From the DeepSol protein solubility set come the findings set out here.

This data set in a line: soluble on expression in E. coli; label from the status in PepcDB or PDB records.
In the case of “MPGTLSFPSDAFPAYPALEIDQPDGWVALAGVGLPLALAAEVPSGQFRPNVLVTVQRFGVGHTVADSRSAVNKSLKALPRFTQTLREDSIEMLGSPGMRVEGYFSDGKGGTMVQALRMCVVEAGPVFDVVQITGTCSGPQTEAFFGQIREIQDTLRLAG”, the “soluble on expression in E. coli” value is given as “not soluble”.

As for “MGSSHHHHHHSSGLVPRGSHMTPDDIAGFYAKRADLDLDNYIELDFDFECAGDPHEAAAHLCSEQSTAQWRRVGFDEDFRPRFAAKVLELSAEPRPSGFSVPVECAARGPVHACRVTIAHPHGNFGAKIPNLLSAVCGEGVFFSPGIPLIRLQDIRFPEPYLAAFDGPRFGIAGVRERLQAFDRPIFFGVIKPNIGLPPQPFAELGYQSWTGGLDIAKDDEMLADVDWCPLAERAALLGDACRRASAETGVPKIYLANITDEVDRLTELHDVAVANGAGALLINAMPVGLSAVRMLRKHATVPLIAHFPFIAAFSRLANYGIHSRVMTRLQRLAGFDVVIMPGFGPRMMTPEHEVLDCIRACLEPMGPIKPCLPVPGGSDSAATLENVYRKVGSADFGFVPGRGVFGHPMGPAAGATSIRQAWDAIAAGIPVPDHAASHPELAAALRAFGGR”, the “soluble on expression in E. coli” value is “soluble”.

Turning to “MGSDKIHHHHHHMATHNHTLTMEWIVDRTRTVYSLPYFYERLNEAINHPRSSIDDVARIIIDDQGLTARILKLANSPMFGFFSKVDSISKAVTIIGTQQLRDLALAASVMDVFKDIPRELMDMVLFWRHSIACGIVARNLAIYLRESNVERFFVAGILHDVGQLVMCTAIPEKVSEVLARNRLESRFLDATERDALGFDHAALGGALLRAWKIPATINEPVAYHHEPGKAEQFSLEVSIIHLADIICQALGYGASGEGGVPLLDPAAWDRLGVPVSILTTIVKQSEPQVEETFAILVEG”, the “soluble on expression in E. coli” value is listed as “not soluble”.

As to “MRVVVLMGGRSSEREISLKTGKAVAKALRELGHEVYELDLDKELPCKLLEIKPDKVFIALHGRYGEDGTVQGLLEILDIPYTGSDTIASAVSIDKDFTKRIVKSLGINTPDWETFISEGDVLNTEWNKFPAVVKPVREGSSVGLKIVESLEELKEYALDLLKKTERVMVEEFVEGRDMTVGILKGEALPVVEIIPKKGVYDYECKYTKGMSEYRILKDEKLSKKLQEISLKISKFLSLKDFARIDFRVTKEGKIFFLEVNTIPGMTELSLLPMAAKEKGMDFKKLISIIIT”, the “soluble on expression in E. coli” value is recorded as “soluble”.

Take “MYIAHIFRVSVAHLQFFNGPTTKNWAEPYQSIETSDTQSHITWQALIGRPFIFVEKKFLLFLSKKFSLVGNFPIPSNFADQFSSVSIPSESLPFSRKSFSDHHPWLPLISMESSWE”: the “soluble on expression in E. coli” value is “not soluble”.

As for “MAHHHHHHMDRLAGSFLSNGDVANASSLYNSLEKLNPTRYSRMARICRVLLNPQGVPLPHRHLDICEALLDPLVPPEVLLRDSAENVQKSFQRLAVCAHPDKNPSPSANEAFLRLTMMKDKALELLRNGVGRKCDGATEAPPGKAADSNGGKGKPKMQGSGPAVPTVAHRRRPLRPGVPL”, the “soluble on expression in E. coli” value was “soluble”.

Turning to “MGSDKIHHHHHHMKIDRLIGIITILLQKERATIPQLAERFEVSCRTIQRDIDAIGQAGIPIVSRQGYGGGLSIADGYKLDKTVLTKKELQAILTGIRSIDSISKTTYGQTLIEKFANGKAAVLAEQDMILIDLASWYQDSLSDKIEQLRQAIFNREKVFFVYYSDKGESERLIEPYLILFKWAAWYVYGYCLTKNEYRLFKLNRLWKLKNTNLTYIPRNIPEGKLEFERYFQTEEIRLTALFDARAKYRLIEEYGPECFTVSEPDKLLFQRSFSNPEYLLQWLLSFGDRVRVIEPPELKANIQEHAKNMLRQDD”, the “soluble on expression in E. coli” value is “not soluble”.

On to “TQYWDFCFREPDVAATDQEYREELDRLFVQAVKRQLVTDVELGSYLSGGMDSGSIAAVAAAEHPYIKTFTCGFDLNSASGIELGFDERSKAEYMSYCFKTEHYEMVLKAGDMERILPHVACHLEEPRVGQSYPNFFAAKLASRFVKVVLSGAGGDELFAGYPWRYYRAVVNDDFEHYVDKYYNFWQRLLPNSELKRVFAPIAGEVEHVWTRDIFRNVFRHHADQLYRPEDYINHSLYFEAKTFLHGLLVVEDKLSMAHGLETRVPFLDNDLVEFAMRCPIRLKLNNLAEVVKINENETGNKVRKFFEKNRDGKTILREVMNHRLPADISKAEKQGFSAPDASWFKGESLEFVRRKLLDGHSPLYEIMDAATVRELVNEHLGGIRNRRLLIWSLLSVDAWMRQT”, for which the “soluble on expression in E. coli” value was “not soluble”.
